Experimental data: patent US7807387B2, “Biological agent that causes IL-6 receptor release” (Meyer Pharmaceuticals LLC, priority 2003, dated 2010)

Tests used:
[1] = tested on: carrageenan-induced paw edema; assay: Carrageenan-induced paw edema; assay type: in vivo, Sprague Dawley rats
Description: Based on the standard model (Winter et al., Proc Soc Exp Biol Med 111:544, 1962; Hansra et al., Inflammation 24:141, 2000), the experiment was performed as follows. Male Sprague Dawley rats were randomized by weight into three treatment groups. The animals were administered MP8 or control solution subcutaneously, or indomethacin by mouth. One hour later, they were injected in the left hind paw with a sterile solution of 1% carrageenan suspension in water, in order to induce swelling. Three hours later, the volume of the injected paw was measured by water displacement in a water plethysmograph (mean±SEM; 10 animals per group).
Male Sprague Dawley rats were administered with test protein or indomethacin (anti-inflammatory control), and then challenged in a hind footpad with carrageenan, as in Example 12.

TNF receptor = assay: Cell surface cleavage assay, release of TNF receptor isoforms by enzyme immunoassay; assay type: cell-based; details: 25 μg protein with 2.5×10^6 cells; (treated—untreated)/untreated
Description: To determine cell surface cleavage activity, 25 μg of MP8-FL2 was combined with 2.5×10^6 cells. Release of both TNF receptor isoforms was determined by enzyme immunoassay as (treated—untreated)/untreated.

LPS-induced septic shock = assay: LPS/galactosamine-induced septic shock model; assay type: in vivo, Balb/c mice; details: up to 40 μg one hour before 10 μg LPS and 15 mg galactosamine
Description: A classic model for determining effectiveness of agents against cytokine-mediated inflammation is endotoxin-induced septic shock (Morrison et al., J Infect Dis 162:1063, 1990).
The septic shock experiment was conducted as follows. Female Balb/c mice were randomized by weight into 6 treatment groups. Sepsis was induced by injecting 10 μg LPS and 7 mg galactosamine in the lateral or dorsal caudal vein. Some of the groups were pretreated with 50,000 FU of MP8 simultaneously or 3 hours in advance of the LPS challenge to determine whether there was a protective effect.
FIG. 8 is a Kaplan-Meier survival curve, showing the mortality in each of the treatment groups in the study. Without any treatment or challenge, there is no effect on the animals, and the line stays at the top. Life-compromising challenge causes the line to fall to the bottom of the graph in a step-wise fashion as each animal succumbs. Treatment that is protective against the challenge maintains the line near the top of the graph.
The enzyme was administered in a volume of 110 μL at one hour before the LPS challenge.
Stability of the clinical effect of MP8 was determined in the septic shock model. Female Balb/c mice were injected with 300,000 FU of MP8 that had been stored for 4 days at −70° C., or 7 days at 4° C. One hour later, the mice were challenged with 10 μg LPS and 7 mg galactosamine as before.
In this example, durability of receptor cleavage in vivo was determined by treating animals subcutaneously up to three days in advance with 300,000 FU of MP8. The mice were then challenged with […] LPS and 7 mg galactosamine in the usual fashion.
Sepsis was induced in Balb/c mice by administering 10 μg LPS and […] galactosamine, as in Example 3. Randomized groups were pretreated with up to 40 μg MP8-FL2 one hours in advance of the LPS challenge.

Isoelectric point = assay type: physicochemical
p55 TNF Receptor = p55 TNF Receptor (Homo sapiens, UniProt P19438); assay: FRET peptide cleavage assay, p55 TNF receptor peptide; assay type: biochemical; details: Zn++ 0.1 mM, Ca++ 2 mM, corrected for EDTA, 37° C. for 3 hours
Description: Cytokine-specific proteolytic activity can rapidly be quantified by Fluorescence Resonance Energy Transfer (FRET). Peptides having the amino acid sequence of the TNF Receptor or other protein substrates are labeled at opposite ends with a fluorescence emitter and a fluorescence quencher. The peptide is then incubated with a source of receptor cleaving enzyme, and fluorescence is measured. The quenching group normally absorbs fluorescence from the emitter. But enzymatic cleavage of the peptide decouples the quenching group, and fluorescence emission increases proportionally.
The peptides used as substrates in the cleavage assay were taken from the known sites of proteolytic cleavage of the whole protein. The peptides were labeled with the fluorescence emitter (Edans-●) at the C-terminal, and the quenching hapten (Dabcyl-▴) at the N-terminal.
The assay is conducted in the presence of the metal cations Zn^++ (0.1 mM) and Ca^++ (2 mM), and corrected for cleavage in the presence of EDTA (20 mM). Dependence on divalent cations confirms that the enzyme activity measured in this assay is a metalloprotease. The assay mixture also contains a cocktail of protease inhibitors and bovine albumin. Cleavage is measured as the net change in fluorescence emission after incubating the enzyme with the peptide at 37° C. for 3 hours. […]

p55 or p75 TNF receptor = details: cited from earlier work

COc1ccc2c(c1)c(CC(=O)O)c(C)n2C(=O)c1ccc(Cl)cc1 [indomethacin, reference compound]
inhibition of edema formation ([1]; given one hour before carrageenan, paw volume three hours later, MP8 subcutaneously, indomethacin by mouth): 49%

B1: MP8-FL2: full length MP8 (SEQ. ID NO:53) without HIS tag, produced from E. coli strain MP820 (protein, listed as Homo sapiens)
chain: MCVHPGACLPHVGVSWAEFPGHFSVELSSLLVRNVNYEIPSLKKQIAKCQQLQQEYSRKEEECQAGAAEMREQFYHSCKQYGITGENVRGELLALVKDLPSQLAEIGAAAQQSLGEAIDVYQASVGFVCESPTEQVLPMLRFVQKRGNSTVYEWRTGTEPSVVERPHLEELPEQVAEDAIDWGDFGVEAVSEGTDSGISAEAAGIDWGIFPESDSKDPGGDGIDWGDDAVALQITVLEAGTQAPEGVARGPDALTLLEYTETRNQFLDELMELEIFLAQRAVELSEEADVLSVSQFQLAPAILQGQTKEKMVTMVSVLEDLIGKLTSLQLQHLFMILASPRYVDRVTEFLQQKLKQSQLLALKKELMVQKQQEALEEQAALEPKLDLLLEKTKELQKLIEADISKRYSGRPVNLMGTSL
cleavage and release of TNF receptor from the cell surface (TNF receptor): cause cleavage and release of TNF receptor, with preference for the R1 (p55) isoform | paw swelling ([1]; challenge in hind footpad with carrageenan as in Example 12): significantly prevented paw swelling | protection against septic shock (LPS-induced septic shock): protected the mice in a dose-dependent fashion | Isoelectric Point - By isoelectric focusing (Isoelectric point): 5.6 | cleavage of p55 TNF receptor (R1) peptide (p55 TNF Receptor): caused cleavage

B2: MDC-9: metalloprotease (protein, UniProt Q13443 29-819, looked up)
Disintegrin and …: AARPGFQQTSHLSSYEIITPWRLTRERREAPRPYSKQVSYVIQAEGKEHIIHLERNKDLLPEDFVVYTYNKEGTLITDHPNIQNHCHYRGYVEGVHNSSIALSDCFGLRGLLHLENASYGIEPLQNSSHFEHIIYRMDDVYKEPLKCGVSNKDIEKETAKDEEEEPPSMTQLLRRRRAVLPQTRYVELFIVVDKERYDMMGRNQTAVREEMILLANYLDSMYIMLNIRIVLVGLEIWTNGNLINIVGGAGDVLGNFVQWREKFLITRRRHDSAQLVLKKGFGGTAGMAFVGTVCSRSHAGGINVFGQITVETFASIVAHELGHNLGMNHDDGRDCSCGAKSCIMNSGASGSRNFSSCSAEDFEKLTLNKGGNCLLNIPKPDEAYSAPSCGNKLVDAGEECDCGTPKECELDPCCEGSTCKLKSFAECAYGDCCKDCRFLPGGTLCRGKTSECDVPEYCNGSSQFCQPDVFIQNGYPCQNNKAYCYNGMCQYYDAQCQVIFGSKAKAAPKDCFIEVNSKGDRFGNCGFSGNEYKKCATGNALCGKLQCENVQEIPVFGIVPAIIQTPSRGTKCWGVDFQLGSDVPDPGMVNEGTKCGAGKICRNFQCVDASVLNYDCDVQKKCHGHGVCNSNKNCHCENGWAPPNCETKGYGGSVDSGPTYNEMNTALRDGLLVFFFLIVPLIVCAIFIFIKRDQLWRSYFRKKRSQTYESDGKNQANPSRQPGSVPRHVSPVTPPREVPIYANRFAVPTYAAKQPQQFPSRPPPPQPKVSSQGNLIPARPAPAPPLYSSLT
cleavage of p55 or p75 TNF receptor (p55 or p75 TNF receptor): do not efficiently cleave

B3: ADAM-10: metalloprotease (protein, UniProt O14672 214-748, looked up)
Disintegrin and …: TTSAEKNTCQLYIQTDHLFFKYYGTREAVIAQISSHVKAIDTIYQTTDFSGIRNISFMVKRIRINTTADEKDPTNPFRFPNIGVEKFLELNSEQNHDDYCLAYVFTDRDFDDGVLGLAWVGAPSGSSGGICEKSKLYSDGKKKSLNTGIITVQNYGSHVPPKVSHITFAHEVGHNFGSPHDSGTECTPGESKNLGQKENGNYIMYARATSGDKLNNNKFSLCSIRNISQVLEKKRNNCFVESGQPICGNGMVEQGEECDCGYSDQCKDECCFDANQPEGRKCKLKPGKQCSPSQGPCCTAQCAFKSKSEKCRDDSDCAREGICNGFTALCPASDPKPNFTDCNRHTQVCINGQCAGSICEKYGLEECTCASSDGKDDKELCHVCCMKKMDPSTCASTGSVQWSRHFSGRTITLQPGSPCNDFRGYCDVFMRCRLVDADGPLARLKKAIFSPELYENIAEWIVAHWWAVLLMGIALIMLMAGFIKICSVHTPSSNPKLPPPKPLPGTLKRRRPPQPIQQPQRQRPRESYQMGHMRR
cleavage of p55 or p75 TNF receptor (p55 or p75 TNF receptor): do not efficiently cleave
